Test [1] addresses Pertuzumab kappa light chain Q124E_V133D_L135W. Description: LCCA, SPR tag read-out.
Test [2] addresses Pertuzumab kappa light chain V133D_Q160E. Description: LCCA, SPR.
For test [3], the target named is Pertuzumab kappa light chain V133D. Description: LCCA, SPR.
Test [4] has as its target Pertuzumab kappa light chain V133D_Q160E. As to the kind of experiment: LCCA, SPR. This is another data set of the same source.
For test [5], the target named is CAT-2200 lambda light chain T131K_V133S. Description: LCCA, SPR.
The target of test [6] is CAT-2200 lambda light chain E124Q_T131K_V133S. Description: LCCA, SPR tag read-out.
Test [7] deals with CAT-2200 light chain (lambda) E124Q_T131K, FLAG-tagged. As to the kind of experiment: LCCA.
The target of test [8] is CAT-2200 light chain (lambda) E124Q_T131K_V133S, FLAG-tagged. As to the kind of experiment: LCCA.
Test [9] concerns the target Pertuzumab light chain (kappa) V133D_Q160E, HA-tagged. As to the kind of experiment: LCCA.
The target in test [10] is Pertuzumab light chain (kappa) V133D, HA-tagged. As to the kind of experiment: LCCA.
Test [11] concerns the target Pertuzumab light chain (kappa) V133D_Q160E, HA-tagged. Description: LCCA. This is another data set of the same source.
The target of test [12] is Pertuzumab light chain (kappa) V133D, HA-tagged. As to the kind of experiment: LCCA. The source holds these as a separate data set.
In test [13] the target is CAT-2200 light chain (lambda) T131K_V133S, FLAG-tagged. As to the kind of experiment: LCCA.
Test [14] has as its target Pertuzumab light chain (kappa) V133D_Q160E, HA-tagged. Description: LCCA. This is another data set of the same source.
The target in test [15] is Pertuzumab light chain (kappa) V133D, HA-tagged. Description: LCCA. The source holds these as a separate data set.
The target in test [16] is Pertuzumab light chain (kappa) V133D_Q160E, HA-tagged. Description: LCCA. The source holds these as a separate data set.
For test [17], the target named is Pertuzumab light chain (kappa) V133D, HA-tagged. As to the kind of experiment: LCCA. This is another data set of the same source.
Test [18] addresses CAT-2200 light chain (lambda) T131K_V133S, FLAG-tagged. As to the kind of experiment: LCCA. The source holds these as a separate data set.
Test [19] has as its target CAT-2200 light chain (lambda) E124Q_T131K_V133S, FLAG-tagged. Description: LCCA. The source holds these as a separate data set.
In test [20] the target is Pertuzumab light chain (kappa) S176E_T178E, HA-tagged. As to the kind of experiment: LCCA.
Test [21] deals with Pertuzumab light chain (kappa) S176D_T178E, HA-tagged. As to the kind of experiment: LCCA.
For test [22], the target named is Pertuzumab light chain (kappa) S176E_T178E, HA-tagged. Description: LCCA. The source holds these as a separate data set.
Test [23] deals with Pertuzumab light chain (kappa) S131D_V133G_T178F, HA-tagged. Description: LCCA.
Test [24] addresses Pertuzumab light chain (kappa) S131E_V133G_T178F, HA-tagged. Description: LCCA.
The target in test [25] is Pertuzumab light chain (kappa) S176E_T178E, HA-tagged. Description: LCCA. The source holds these as a separate data set.
The target in test [26] is Pertuzumab light chain (kappa) V133I_S176D_T178E, HA-tagged. Description: LCCA.
Test [27] deals with Pertuzumab light chain (kappa) S131D_V133G_T178F, HA-tagged. As to the kind of experiment: LCCA. This is another data set of the same source.
Test [28] deals with Pertuzumab light chain (kappa) V133I_S176E_T178E, HA-tagged. As to the kind of experiment: LCCA.
Test [29] addresses Pertuzumab light chain (kappa) V133I_S176D_T178E, HA-tagged. Description: LCCA. The source holds these as a separate data set.
Test [30] concerns the target Pertuzumab light chain (kappa) V133L_S176D_T178E, HA-tagged. Description: LCCA.
Test [31] has the same target. Description: LCCA. This is another data set of the same source.
Test [32] has the same target. Description: LCCA. This is another data set of the same source.
The target is the same in test [33]. As to the kind of experiment: LCCA. This is another data set of the same source.
Test [34] has the same target. As to the kind of experiment: LCCA. The source holds these as a separate data set.
Test [35] shares this target. As to the kind of experiment: LCCA. This is another data set of the same source.

Where two headings read alike, the source gives them in different places.

Turning to Pertuzumab Fab heavy chain S186K, the H2L2:H2L1 median scalar value in test [1] was 0.96 ln(ratio). For the same substance, the H2L2:H2L1 normalized median ratio in [1] was found to be 72%; in test [2], 74%; in test [5], 26%; in test [6] it was 28%. Also, the figures for the H2L2:H2L1 normalized median scalar value ln(r1/f1) in [2], in test [3] and in test [4] were 1.05, 0.77 and 0.22, respectively.
As to “Pertuzumab heavy chain Fab construct L143I_S186K”, the H2L2:H2L1 normalized median ratio (H2L1 share) in test [7] amounted to 31%; in test [8], 17%; in test [13], 28%. For the same substance, the H2L2:H2L1 normalized median scalar value ln(r1/f1) in test [9] stood at 1.6; in test [10], 1.18; in test [11], 0.81; in test [12], 0.36; in test [14], 0.76; in [15] it was 0.26. For the same substance, the H2L2:H2L1 normalized median scalar value ln(r1/f1) in [16] was found to be 1.5; in test [17] it was 0.92.
As to “Pertuzumab heavy chain Fab construct S186K”, the H2L2:H2L1 normalized median ratio (H2L1 share) amounted to 22% in test [8], 26% in test [18] and 31% in test [19]. The H2L2:H2L1 normalized median scalar value ln(r1/f1) is 1.27 in [9]; 0.82 in [10]; 0.41 in test [11]; 0.22 in test [12]; 0.22 in test [14]; 0.02 in [15]. For the same substance, the H2L2:H2L1 normalized median scalar value ln(r1/f1) was 1.05 in test [16] and 0.77 in test [17].
With “Pertuzumab heavy chain Fab construct S188K”, the H2L2:H2L1 normalized median scalar value ln(r1/f1) in [20] stood at 2.67; in test [21], 1.41; in test [22], 2.71; in test [23] it was 1.5; in [24], 1.67; in [25] it was 2.75. Further, the results for the H2L2:H2L1 normalized median scalar value ln(r1/f1) in test [26] and in [27] were 2.33 and 2.22, respectively.
Turning to “Pertuzumab heavy chain Fab construct V177I_S188K”, the H2L2:H2L1 normalized median scalar value ln(r1/f1) turned out to be 2.63 in [28]; 2.58 in [29]; 2.38 in [30]; 0.55 in test [31]; 1.83 in test [32]; 2.15 in test [33]. The H2L2:H2L1 normalized median scalar value ln(r1/f1) in test [34] was 1.64; in [35] it was 2.3.

For the origin of these results see patent US20190338048A1.
